Results on 13 molecules are retold here after patent US20260201064A1 (ISU ABXIS, published 2026).

First the molecules themselves.
T1: recombinant human ASM protein (human, UniProt P17405 47-630)
T1 construct: Recombinant human ASM in solution; also called acid sphingomyelinase (ASM) protein
T1 sequence: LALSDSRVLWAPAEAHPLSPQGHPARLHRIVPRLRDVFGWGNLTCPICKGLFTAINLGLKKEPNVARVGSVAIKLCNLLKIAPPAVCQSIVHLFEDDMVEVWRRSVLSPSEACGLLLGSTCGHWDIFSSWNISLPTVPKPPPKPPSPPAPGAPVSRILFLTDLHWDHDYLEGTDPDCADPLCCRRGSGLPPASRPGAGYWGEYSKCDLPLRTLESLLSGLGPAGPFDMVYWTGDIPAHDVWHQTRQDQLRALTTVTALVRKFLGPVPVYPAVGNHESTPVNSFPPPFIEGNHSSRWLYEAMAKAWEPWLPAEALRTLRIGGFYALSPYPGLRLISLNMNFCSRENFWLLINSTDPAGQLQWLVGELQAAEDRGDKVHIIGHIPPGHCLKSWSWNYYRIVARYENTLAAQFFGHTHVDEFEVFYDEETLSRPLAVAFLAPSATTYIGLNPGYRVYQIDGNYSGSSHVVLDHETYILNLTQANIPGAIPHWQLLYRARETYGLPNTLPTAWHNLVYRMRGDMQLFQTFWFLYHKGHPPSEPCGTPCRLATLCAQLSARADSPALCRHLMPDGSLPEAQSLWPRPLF

B1: #9104v-L19 (antibody, human IgG4 S228P, lambda, V domains shown)
VH: EVQLLESGGGLVQPGGSLRLSCAASGFTFSNYYMSWVRQAPGKGLEWVSGIYYGSGNIYYADSVKGRFTISRDNSKNTLYLQMNSLRAEDTAVYYCARDTPGFDYWGQGTLVTVSS
VL: QSVLTQPPSASGTPGQRVTISCTGSSSNIGNNAVNWYQQLPGTAPKLLIYYDLFRPSGVPDRFSGSKSGTSASLAISGLRSEDEADYYCGAWDYSLSAYVFGGGTKLTVLG
notes: Full-length IgG, lambda
B2: #9104v-L37 (antibody, human IgG4 S228P, lambda, V domains shown)
VH: B1 VH
VL: B1 VL with L53S, F54Y, P56A
notes: Full-length IgG, lambda
B3: #9104v-L32 (antibody, human IgG4 S228P, lambda, V domains shown)
VH: B1 VH
VL: B1 VL with L53S, F54Y, R55L
notes: Full-length IgG, lambda
B4: #9104v-L23 (antibody, human IgG4 S228P, lambda, V domains shown)
VH: B1 VH
VL: B1 VL with L53Q
notes: Full-length IgG, lambda
B5: #9104v-L33 (antibody, human IgG4 S228P, lambda, V domains shown)
VH: B1 VH
VL: B1 VL with L53S, F54Y, R55P, S57Y
notes: Full-length IgG, lambda
B6: #9104v-L20 (antibody, human IgG4 S228P, lambda, V domains shown)
VH: B1 VH
VL: B1 VL with L53M, S57G
notes: Full-length IgG, lambda
B7: #9104v-L29 (antibody, human IgG4 S228P, lambda, V domains shown)
VH: B1 VH
VL: B1 VL with L53S, P56S, S57T
notes: Full-length IgG, lambda
B8: #9104v-L25 (antibody, human IgG4 S228P, lambda, V domains shown)
VH: B1 VH
VL: B1 VL with L53S, R55P, P56A
notes: Full-length IgG, lambda
B9: #9104v-L38 (antibody, human IgG4 S228P, lambda, V domains shown)
VH: B1 VH
VL: B1 VL with L53S, F54Y, S57F
notes: Full-length IgG, lambda
B10: #9104v-L21 (antibody, human IgG4 S228P, lambda, V domains shown)
VH: B1 VH
VL: B1 VL with L53M, S57N
notes: Full-length IgG, lambda
B11: #9104v-L27 (antibody, human IgG4 S228P, lambda, V domains shown)
VH: B1 VH
VL: B1 VL with L53S, P56Q
notes: Full-length IgG, lambda
B12: #9104v-L28 (antibody, human IgG4 S228P, lambda, V domains shown)
VH: B1 VH
VL: B1 VL with L53S, P56R
notes: Full-length IgG, lambda
B13: #9104v-L34 (antibody, human IgG4 S228P, lambda, V domains shown)
VH: B1 VH
VL: B1 VL with L53S, F54Y, R55Q, P56A
notes: Full-length IgG, lambda

Positions count from the first letter of the chain named.

The assay has as its target T1, recombinant human ASM protein. The assay can be described thus: BLI (Octet), antibody on AHC sensor. The procedure: The binding affinity, to the ASM protein, of the produced antibodies specifically binding to the ASM protein and the interactive dynamics therebetween were measured using an Octet® QK384 system (Pall Life Sciences).
First, an antibody specifically binding to the ASM protein produced in Example 1 was captured using an anti-human IgG Fc capture (AHC) biosensor, and 1.25, 2.5, 5, 10, or 20 nM recombinant human ASM protein solution was added thereto. […] The association constant (Kₐ), dissociation constant (Kd), and equilibrium dissociation constant (KD) for each antibody were determined using Octet® analysis software (Pall Life® Sciences). As a result, the binding affinities, to the human ASM protein, of the antibodies with mutations in the heavy chain CDR regions of the antibody #9104 as depicted in Table 1 are shown in Table 5, and the binding affinities, to the human ASM protein, of the antibodies with mutations of the light chain CDR regions in the antibody #9104 as depicted in Table 2 are shown in Table 6.
In general terms: BLI is a label-free optical method that tracks binding on a fibre tip over time.
In the case of B1, the Kd (usually the concentration at which binding is half-saturated) was determined as 1.03 nM; the koff (as a rule, the rate constant with which the complex falls apart) stood at 0.000238 s⁻¹; the kon (commonly the rate constant with which the complex forms) was 231000 M⁻¹ s⁻¹.
On to B2, for which the Kd stood at 1.27 nM, the koff is 0.000327 s⁻¹ and the kon stood at 259000 M⁻¹ s⁻¹.
The like results for B3 were, in that order, 1.37 nM, 0.000439 s⁻¹ and 321000 M⁻¹ s⁻¹.
With B4, the Kd was determined as 0.817 nM, the koff stood at 0.000185 s⁻¹ and the kon was determined as 226000 M⁻¹ s⁻¹.
Turning to B5, the Kd came to 1.27 nM, the koff came out at 0.000289 s⁻¹ and the kon came to 227000 M⁻¹ s⁻¹.
For the molecule B6, the Kd was found to be 0.658 nM, the off-rate (koff) was found to be 0.000162 s⁻¹ and the kon turned out to be 247000 M⁻¹ s⁻¹.
In the case of B7, the Kd amounted to 1.07 nM, the koff was 0.000292 s⁻¹ and the kon was 272000 M⁻¹ s⁻¹.
For the molecule B8, the dissociation constant Kd turned out to be 0.882 nM, the koff came to 0.000259 s⁻¹ and the kon was 294000 M⁻¹ s⁻¹.
The like results for B9 were, in that order, 1.8 nM, 0.000343 s⁻¹ and 191000 M⁻¹ s⁻¹.
On to B10, for which the Kd turned out to be 0.556 nM, the koff is 0.000135 s⁻¹ and the kon was 243000 M⁻¹ s⁻¹.
In the case of B11, the Kd was 1.02 nM, the koff was 0.000355 s⁻¹ and the kon was 348000 M⁻¹ s⁻¹.
Regarding B12, the Kd worked out at 1.05 nM, the koff was determined as 0.000254 s⁻¹ and the kon stood at 241000 M⁻¹ s⁻¹.
With B13, the Kd was determined as 1.61 nM, the koff stood at 0.000493 s⁻¹ and the kon is 306000 M⁻¹ s⁻¹.
